From the supplement of paper PMC7877785
± gives the uncertainty stated by the source.

Test: self-splicing fitness, log relative to wild type (ln ratio); higher = more splicing; Tetrahymena group I intron in knt gene, E. coli kanamycin selection, DiMSum; sequences stand for … in CUCUCU…GGAGGGAAAAGUUAUCAGGCAUGCACCUGGUAGCUAGUCUUUAAACCAAUAGAUUGCAUCGGUUUAAAAGGCAAGACCGUCAAAUUGCGGGAAAGGGGUCAACAGCCGUUCAGUACCAAGUCUCAGGGGAAACUUUGAGAUGGCCUUGCAAAGGGUAUGGUAAUAAGCUGACGGACAUGGUCCUAACCACGCAGCCAAGUCCUAAGUCAACAGAUCUUCUGUUGAUAUGGAUGCAGUUCACAGACUAAAUGUCGGUCGGGGAAGAUGUAUUCUUCUCAUAAGAUAUAGUCGGACCUCUCCUUAAUGGGAGCUAGCGGAUGAAGUGAUGCAACACUGGAGCCGCUGGGAACUAAUUUGUAUGCGAAAGUAUAUUGAUUAGUUUUGGAGUACUCGUGGUCG
Summary of the method: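 Colonies from six replicate transformations of E. coli BL21(DE3) were pooled and amplicon-sequenced on an Illumina HiSeq 2500. The library placed an intron with all eight P1ex-region nucleotides randomised inside the knt kanamycin-resistance gene on pET-22b(+), and cells grew overnight at 37°C or 30°C on LB agar with or without 25 μg/mL kanamycin (plus 100 μg/mL carbenicillin, 50 μM IPTG, 0.2% rhamnose). Fitness is the DiMSum error-weighted combination of wild-type-normalised replicate fold changes, kanamycin versus none.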

Row | Sequence | self-splicing fitness (ln) (30 °C) | self-splicing fitness (ln) (37 °C)
1 | ACCAAGCAAUAUUACGGUCG | -3.81 ± 0.22 | -2.56 ± 0.15
2 | ACCAAGCAAUAUUACGUAAG | -2.18 ± 0.063 | -1.37 ± 0.098
3 | ACCAAGCAAUAUUACGUCAA | -3.35 ± 0.17 | -3 ± 0.16
4 | ACCAAGCAAUAUUACGUCGU | -2.34 ± 0.076 | -1.88 ± 0.11
5 | ACCAAGCAAUAUUACGUCUG | -2.55 ± 0.1 | -1.02 ± 0.1
6 | ACCAAGCAAUAUUACGUUGA | -2.83 ± 0.12 | -2.01 ± 0.11
7 | ACCCAGCAAUAUUACGAAGU | -0.678 ± 0.058 | 0.183 ± 0.074
8 | ACCCAGCAAUAUUACGACAC | -2.41 ± 0.091 | -0.292 ± 0.083
9 | ACCCAGCAAUAUUACGACGC | 0.24 ± 0.085 | 0.483 ± 0.11
10 | ACCCAGCAAUAUUACGAGGA | -0.706 ± 0.068 | -1.08 ± 0.077
11 | ACCCAGCAAUAUUACGAGUU | -1.14 ± 0.048 | -0.101 ± 0.061
12 | ACCCAGCAAUAUUACGAUGG | -2.94 ± 0.095 | -1.26 ± 0.085
13 | ACCCAGCAAUAUUACGAUUU | -0.881 ± 0.054 | 0.0888 ± 0.069
14 | ACCCAGCAAUAUUACGCACG | -1.86 ± 0.067 | -1.01 ± 0.084
15 | ACCCAGCAAUAUUACGCCAG | -3.26 ± 0.21 | -2.55 ± 0.33
16 | ACCCAGCAAUAUUACGCUAU | -0.847 ± 0.066 | -0.75 ± 0.08
17 | ACCCAGCAAUAUUACGCUGG | -2.83 ± 0.14 | -2.4 ± 0.18
18 | ACCCAGCAAUAUUACGGACA | -0.0478 ± 0.08 | -0.181 ± 0.089
19 | ACCCAGCAAUAUUACGGCUC | -1.46 ± 0.058 | -0.423 ± 0.073
20 | ACCCAGCAAUAUUACGGCUU | -0.338 ± 0.071 | 0.053 ± 0.089
21 | ACCCAGCAAUAUUACGGGAC | -2.71 ± 0.1 | -1.54 ± 0.1
22 | ACCCAGCAAUAUUACGGGAU | -2.6 ± 0.085 | -1.01 ± 0.076
23 | ACCCAGCAAUAUUACGGGUU | -4.18 ± 0.12 | -2.84 ± 0.13
24 | ACCCAGCAAUAUUACGUCCC | -1.18 ± 0.16 | -0.981 ± 0.17
25 | ACCCAGCAAUAUUACGUCUC | -1.89 ± 0.078 | -0.796 ± 0.094
26 | ACCCAGCAAUAUUACGUGGC | -2.83 ± 0.13 | -1.69 ± 0.11

Row | Sequence | self-splicing fitness (ln) (30 °C) | self-splicing fitness (ln) (37 °C)
27 | ACCCAGCAAUAUUACGUGUU | -1.45 ± 0.047 | -0.111 ± 0.061
28 | ACCGAGCAAUAUUACGAACA | -3.15 ± 0.47 | -1.43 ± 0.17
29 | ACCGAGCAAUAUUACGAACC | -2.9 ± 0.39 | –
30 | ACCGAGCAAUAUUACGAAGU | -1.93 ± 0.16 | -1.68 ± 0.22
31 | ACCGAGCAAUAUUACGACGG | -2.24 ± 0.2 | -0.893 ± 0.21
32 | ACCGAGCAAUAUUACGACGU | -2.04 ± 0.1 | -0.637 ± 0.11
33 | ACCGAGCAAUAUUACGACUC | -1.44 ± 0.29 | -1.59 ± 0.22
34 | ACCGAGCAAUAUUACGACUU | -1.12 ± 0.087 | -0.353 ± 0.11
35 | ACCGAGCAAUAUUACGAGGA | -2.77 ± 0.21 | -2.99 ± 0.38
36 | ACCGAGCAAUAUUACGAGUC | -4.62 ± 0.3 | -3.25 ± 0.22
37 | ACCGAGCAAUAUUACGCAAU | -2.71 ± 0.16 | -2.36 ± 0.32
38 | ACCGAGCAAUAUUACGCAGA | -2.2 ± 0.19 | -2.51 ± 0.23
39 | ACCGAGCAAUAUUACGCCCG | -2.05 ± 0.29 | -1.28 ± 0.33
40 | ACCGAGCAAUAUUACGCGCC | -3.19 ± 0.25 | -3.32 ± 0.43
41 | ACCGAGCAAUAUUACGCGUU | -2.95 ± 0.16 | -1.58 ± 0.18
42 | ACCGAGCAAUAUUACGCUGG | -4.24 ± 0.26 | -2.13 ± 0.21
43 | ACCGAGCAAUAUUACGGAAG | -4.18 ± 0.34 | -1.93 ± 0.43
44 | ACCGAGCAAUAUUACGGCCA | -0.778 ± 0.13 | -0.469 ± 0.14
45 | ACCGAGCAAUAUUACGGCCC | -2.37 ± 0.21 | -1.89 ± 0.29
46 | ACCGAGCAAUAUUACGGCGC | -1.24 ± 0.14 | -0.396 ± 0.16
47 | ACCGAGCAAUAUUACGGCUA | -0.869 ± 0.096 | -0.288 ± 0.091
48 | ACCGAGCAAUAUUACGGCUG | -1.28 ± 0.073 | -1.24 ± 0.1
49 | ACCGAGCAAUAUUACGGGCG | -1.64 ± 0.083 | -0.0363 ± 0.088
50 | ACCGAGCAAUAUUACGGUCA | -1.22 ± 0.12 | -1.06 ± 0.14
51 | ACCGAGCAAUAUUACGGUUC | -3.5 ± 0.43 | –
52 | ACCGAGCAAUAUUACGUCCA | – | -0.553 ± 0.21

Row | Sequence | self-splicing fitness (ln) (30 °C) | self-splicing fitness (ln) (37 °C)
53 | ACCGAGCAAUAUUACGUGAU | -3.36 ± 0.13 | -2.06 ± 0.12
54 | ACCUAGCAAUAUUACGAAUC | -2.94 ± 0.15 | -1.07 ± 0.13
55 | ACCUAGCAAUAUUACGACCA | -1.25 ± 0.16 | 0.323 ± 0.17
56 | ACCUAGCAAUAUUACGAGCU | -0.918 ± 0.075 | -0.237 ± 0.09
57 | ACCUAGCAAUAUUACGCUCU | -0.243 ± 0.096 | -0.447 ± 0.098
58 | ACCUAGCAAUAUUACGCUUC | -1.2 ± 0.1 | -1.1 ± 0.11
59 | ACCUAGCAAUAUUACGGACG | -0.864 ± 0.07 | -0.114 ± 0.1
60 | ACCUAGCAAUAUUACGGAGC | -2.67 ± 0.12 | -1.28 ± 0.14
61 | ACCUAGCAAUAUUACGGCAC | -0.933 ± 0.062 | -0.492 ± 0.07
62 | ACCUAGCAAUAUUACGGCAG | -3.99 ± 0.19 | -1.16 ± 0.14
63 | ACCUAGCAAUAUUACGGGCG | -0.0397 ± 0.068 | -0.0691 ± 0.084
64 | ACCUAGCAAUAUUACGGGUU | -2.78 ± 0.14 | -1.95 ± 0.14
65 | ACCUAGCAAUAUUACGGUUA | -2.38 ± 0.18 | -1.57 ± 0.14
66 | ACCUAGCAAUAUUACGUAGC | -1.81 ± 0.12 | -0.966 ± 0.14
67 | ACCUAGCAAUAUUACGUCCG | -2.21 ± 0.14 | -0.377 ± 0.19
68 | ACCUAGCAAUAUUACGUGAG | -0.357 ± 0.048 | -0.0328 ± 0.061
69 | ACCUAGCAAUAUUACGUGCU | -2.56 ± 0.092 | -1.31 ± 0.098
70 | ACCUAGCAAUAUUACGUUCA | -1.4 ± 0.099 | -1.05 ± 0.12
71 | ACCUAGCAAUAUUACGUUCC | -1.5 ± 0.086 | -0.914 ± 0.12
72 | ACGAAGCAAUAUUACGAAAU | -3.34 ± 0.2 | -1.5 ± 0.17
73 | ACGAAGCAAUAUUACGAACG | -1.3 ± 0.091 | -0.288 ± 0.11
74 | ACGAAGCAAUAUUACGAACU | -0.572 ± 0.084 | -0.697 ± 0.093
75 | ACGAAGCAAUAUUACGAGGG | -3.54 ± 0.17 | -3.26 ± 0.3
76 | ACGAAGCAAUAUUACGAUUG | -2.46 ± 0.14 | -0.909 ± 0.15
77 | ACGAAGCAAUAUUACGCACC | -0.755 ± 0.16 | -0.0218 ± 0.22
